Results: patent publication US20240002501A1
Blank lines part the entries; values can stand above or below the substance they belong to.

Assays:
[1] = biological target: L1-CAM on L1-CAM(+) human tumor cells (human) (UniProt P32004); test: flow cytometry, MESO 34 mesothelioma cells (control)
[2] = biological target: L1-CAM on L1-CAM(+) human tumor cells (human) (UniProt P32004); test: flow cytometry, MSTO-21H mesothelioma cells (control)
[3] = biological target: L1-CAM on L1-CAM(+) human tumor cells (human) (UniProt P32004); test: flow cytometry, MESO 11 mesothelioma cells (control)
[4] = biological target: L1-CAM on L1-CAM(+) human tumor cells (human) (UniProt P32004); test: flow cytometry, MESO 47 mesothelioma cells (control)
[5] = biological target: L1-CAM on L1-CAM(+) human tumor cells (human) (UniProt P32004); test: flow cytometry, NCI-H2052 mesothelioma cells (control)
[6] = biological target: L1-CAM on L1-CAM(+) human tumor cells (human) (UniProt P32004); test: flow cytometry, VAMT mesothelioma cells (control)
[7] = biological target: L1-CAM on L1-CAM(+) human tumor cells (human) (UniProt P32004); test: flow cytometry, JMN mesothelioma cells (control)
[8] = biological target: L1-CAM on L1-CAM(+) human tumor cells (human) (UniProt P32004); test: flow cytometry, MESO 10 mesothelioma cells (control)
[9] = biological target: L1-CAM on L1-CAM(+) human tumor cells (human) (UniProt P32004); test: flow cytometry, MESO 9 mesothelioma cells (control)
[10] = biological target: L1-CAM on L1-CAM(+) human tumor cells (human) (UniProt P32004); test: flow cytometry, MSTO mesothelioma cells (control)
[11] = biological target: L1-CAM on L1-CAM(+) human tumor cells (human) (UniProt P32004); test: flow cytometry, CHP-100 EWS cells (control)
[12] = biological target: L1-CAM on L1-CAM(+) human tumor cells (human) (UniProt P32004); test: flow cytometry, HTB-41 A253 submaxillary salivary gland cells (control)
[13] = biological target: L1-CAM on L1-CAM(+) human tumor cells (human) (UniProt P32004); test: flow cytometry, HTB25 breast CA cells (control)
[14] = biological target: L1-CAM on L1-CAM(+) human tumor cells (human) (UniProt P32004); test: flow cytometry, RH41 rhabdomyosarcoma cells (control)
[15] = biological target: L1-CAM on L1-CAM(+) human tumor cells (human) (UniProt P32004); test: flow cytometry, TC32 EWS cells (control)
[16] = biological target: L1-CAM on L1-CAM(+) human tumor cells (human) (UniProt P32004); test: flow cytometry, HTB24 breast CA cells (control)
[17] = biological target: L1-CAM on L1-CAM(+) human tumor cells (human) (UniProt P32004); test: flow cytometry, IMR32 LUC NB cells (control)
[18] = biological target: L1-CAM on L1-CAM(+) human tumor cells (human) (UniProt P32004); test: flow cytometry, HTB67 melanoma cells (control)
[19] = biological target: L1-CAM on L1-CAM(+) human tumor cells (human) (UniProt P32004); test: flow cytometry, M14 melanoma cells (control)
[20] = biological target: L1-CAM on L1-CAM(+) human tumor cells (human) (UniProt P32004); test: flow cytometry, RH48 rhabdomyosarcoma cells (control)
[21] = biological target: L1-CAM on L1-CAM(+) human tumor cells (human) (UniProt P32004); test: flow cytometry, THP-1 AML cells (control)
[22] = biological target: L1-CAM on L1-CAM(+) human tumor cells (human) (UniProt P32004); test: flow cytometry, NCI-H82 SCLC cells (control)
[23] = biological target: L1-CAM on L1-CAM(+) human tumor cells (human) (UniProt P32004); test: flow cytometry, ACC 104 M-07e AML cells (control)
[24] = biological target: L1-CAM on L1-CAM(+) human tumor cells (human) (UniProt P32004); test: flow cytometry, RH28 rhabdomyosarcoma cells (control)
[25] = biological target: L1-CAM on L1-CAM(+) human tumor cells (human) (UniProt P32004); test: flow cytometry, SKEFM EWS cells (control)
[26] = biological target: L1-CAM on L1-CAM(+) human tumor cells (human) (UniProt P32004); test: flow cytometry, SKMEL28 melanoma cells (control)
[27] = biological target: L1-CAM on L1-CAM(+) human tumor cells (human) (UniProt P32004); test: flow cytometry, NCI-H69 SCLC cells (control)
[28] = biological target: L1-CAM on L1-CAM(+) human tumor cells (human) (UniProt P32004); test: flow cytometry, TC71 EWS cells (control)
[29] = biological target: L1-CAM on L1-CAM(+) human tumor cells (human) (UniProt P32004); test: flow cytometry, NCI-H345 SCLC cells (control)
[30] = biological target: L1-CAM on L1-CAM(+) human tumor cells (human) (UniProt P32004); test: flow cytometry, MCF7 breast CA cells (control)
[31] = biological target: L1-CAM on L1-CAM(+) human tumor cells (human) (UniProt P32004); test: flow cytometry, 5838 EWS cells (control)
[32] = biological target: L1-CAM on L1-CAM(+) human tumor cells (human) (UniProt P32004); test: flow cytometry, AU565 breast CA cells (control)
[33] = biological target: L1-CAM on L1-CAM(+) human tumor cells (human) (UniProt P32004); test: flow cytometry, SKEPR EWS cells (control)
[34] = biological target: L1-CAM on L1-CAM(+) human tumor cells (human) (UniProt P32004); test: flow cytometry, SKES-1 EWS cells (control)
[35] = biological target: L1-CAM on L1-CAM(+) human tumor cells (human) (UniProt P32004); test: flow cytometry, SKERT EWS cells (control)
[36] = biological target: L1-CAM on L1-CAM(+) human tumor cells (human) (UniProt P32004); test: flow cytometry, SKNCM NB cells (control)
[37] = biological target: L1-CAM on L1-CAM(+) human tumor cells (human) (UniProt P32004); test: flow cytometry, HTB82 rhabdomyosarcoma cells (control)
[38] = biological target: L1-CAM on L1-CAM(+) human tumor cells (human) (UniProt P32004); test: flow cytometry, A4573 EWS cells (control)
[39] = biological target: L1-CAM on L1-CAM(+) human tumor cells (human) (UniProt P32004); test: flow cytometry, RG143B osteosarcoma cells (control)
[40] = biological target: L1-CAM on L1-CAM(+) human tumor cells (human) (UniProt P32004); test: flow cytometry, SKNMC EWS cells (control)
[41] = biological target: L1-CAM on L1-CAM(+) human tumor cells (human) (UniProt P32004); test: flow cytometry, UM SCC 22B HNSCC cells (control)
[42] = biological target: L1-CAM on L1-CAM(+) human tumor cells (human) (UniProt P32004); test: flow cytometry, RH30 rhabdomyosarcoma cells (control)
[43] = biological target: L1-CAM on L1-CAM(+) human tumor cells (human) (UniProt P32004); test: flow cytometry, 8402 ALL cells (control)
[44] = biological target: L1-CAM on L1-CAM(+) human tumor cells (human) (UniProt P32004); test: flow cytometry, SKELP EWS cells (control)
[45] = biological target: L1-CAM on L1-CAM(+) human tumor cells (human) (UniProt P32004); test: flow cytometry, HCC1954 breast CA cells (control)
[46] = biological target: L1-CAM on L1-CAM(+) human tumor cells (human) (UniProt P32004); test: flow cytometry, RH36 rhabdomyosarcoma cells (control)
[47] = biological target: L1-CAM on L1-CAM(+) human tumor cells (human) (UniProt P32004); test: flow cytometry, HPB-T ALL cells (control)
[48] = biological target: L1-CAM on L1-CAM(+) human tumor cells (human) (UniProt P32004); test: flow cytometry, SKNMM LUC NB cells (control)
[49] = biological target: L1-CAM on L1-CAM(+) human tumor cells (human) (UniProt P32004); test: flow cytometry, CRL1427 osteosarcoma cells (control)
[50] = biological target: L1-CAM on L1-CAM(+) human tumor cells (human) (UniProt P32004); test: flow cytometry, SKEAW EWS cells (control)
[51] = biological target: L1-CAM on L1-CAM(+) human tumor cells (human) (UniProt P32004); test: flow cytometry, SW480 CRC cells (control)
[52] = biological target: L1-CAM on L1-CAM(+) human tumor cells (human) (UniProt P32004); test: flow cytometry, U2OS osteosarcoma cells (control)
[53] = biological target: L1-CAM on L1-CAM(+) human tumor cells (human) (UniProt P32004); test: flow cytometry, NCI-H524 SCLC cells (control)
[54] = biological target: L1-CAM on L1-CAM(+) human tumor cells (human) (UniProt P32004); test: flow cytometry, LAN-1 NB cells (control)

L1-CAM on L1-CAM(+) human tumor cells (human), sequence (P32004 20-1257 limits assumed): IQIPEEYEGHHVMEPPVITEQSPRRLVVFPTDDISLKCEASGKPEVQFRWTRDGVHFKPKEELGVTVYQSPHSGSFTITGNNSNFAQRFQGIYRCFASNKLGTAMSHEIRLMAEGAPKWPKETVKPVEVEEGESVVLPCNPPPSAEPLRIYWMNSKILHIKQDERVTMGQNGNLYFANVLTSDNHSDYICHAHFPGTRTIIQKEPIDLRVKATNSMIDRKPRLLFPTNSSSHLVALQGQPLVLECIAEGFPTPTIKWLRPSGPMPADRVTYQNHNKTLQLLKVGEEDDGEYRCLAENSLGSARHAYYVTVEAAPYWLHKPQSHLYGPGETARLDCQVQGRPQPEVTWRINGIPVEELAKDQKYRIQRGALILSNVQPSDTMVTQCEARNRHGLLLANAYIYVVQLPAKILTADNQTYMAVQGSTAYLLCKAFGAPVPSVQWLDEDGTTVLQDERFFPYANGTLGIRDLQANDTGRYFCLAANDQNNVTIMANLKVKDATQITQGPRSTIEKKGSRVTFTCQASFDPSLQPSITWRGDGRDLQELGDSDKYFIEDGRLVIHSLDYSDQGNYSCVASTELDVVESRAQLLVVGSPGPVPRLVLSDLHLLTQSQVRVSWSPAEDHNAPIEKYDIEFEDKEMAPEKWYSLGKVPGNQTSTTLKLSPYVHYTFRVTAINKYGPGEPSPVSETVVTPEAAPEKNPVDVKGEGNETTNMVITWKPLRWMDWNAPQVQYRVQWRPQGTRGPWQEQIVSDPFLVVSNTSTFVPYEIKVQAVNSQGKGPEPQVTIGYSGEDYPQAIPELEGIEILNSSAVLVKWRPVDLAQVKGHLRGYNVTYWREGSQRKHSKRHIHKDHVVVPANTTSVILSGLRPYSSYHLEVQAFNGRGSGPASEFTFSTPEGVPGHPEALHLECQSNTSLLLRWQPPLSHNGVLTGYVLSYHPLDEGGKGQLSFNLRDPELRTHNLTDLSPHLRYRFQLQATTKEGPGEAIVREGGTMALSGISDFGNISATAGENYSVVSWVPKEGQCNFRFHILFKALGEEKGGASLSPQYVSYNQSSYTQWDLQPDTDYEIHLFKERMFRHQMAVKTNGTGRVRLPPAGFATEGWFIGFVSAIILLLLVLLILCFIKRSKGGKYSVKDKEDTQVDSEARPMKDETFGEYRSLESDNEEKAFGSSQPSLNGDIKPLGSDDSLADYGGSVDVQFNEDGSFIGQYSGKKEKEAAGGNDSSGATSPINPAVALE

- MFI [1]: 5
- MFI [2]: 5
- MFI [3]: 5
- MFI [4]: 5
- MFI [5]: 5
- MFI [6]: 5
- MFI [7]: 5
- MFI [8]: 5
- MFI [9]: 5
- MFI [10]: 5
Substance: MOPC 21 (antibody)

- MFI [11]: 5
- MFI [12]: 5
- MFI [13]: 5
- MFI [14]: 5
- MFI [15]: 5
- MFI [16]: 6
- MFI [17]: 4
- MFI [18]: 5
- MFI [19]: 5
- MFI [20]: 5
- MFI [21]: 5
- MFI [22]: 5
- MFI [23]: 5
- MFI [24]: 5
- MFI [25]: 5
- MFI [26]: 5
- MFI [27]: 4
- MFI [28]: 5
- MFI [29]: 3
- MFI [30]: 5
- MFI [31]: 5
- MFI [32]: 5
- MFI [33]: 3
- MFI [34]: 5
- MFI [35]: 5
- MFI [36]: 5
- MFI [37]: 5
- MFI [38]: 5
- MFI [39]: 5
- MFI [40]: 5
- MFI [41]: 5
- MFI [42]: 5
- MFI [43]: 4
- MFI [44]: 5
- MFI [45]: 5
- MFI [46]: 5
- MFI [47]: 5
- MFI [48]: 4
- MFI [49]: 5
- MFI [50]: 5
- MFI [51]: 5
- MFI [52]: 5
- MFI [53]: 3
- MFI [54]: 6
Substance: Rituxan (antibody)
